This note sets out measurements from paper PMC6141012 (Nature, 2018).

B1: Snu56 (natural protein, S. cerevisiae, UniProt Q03782 1-492, looked up)
chain: MRPRRRGLAYHHTKPKGQLSQGHYPTTSNDGQRRKVGNSEAFQSFDIWKNLDRIRSTKKNAGQFIKGSLLILPMRTEDKQQFDECMDELHKYISKDILRCYPQKEQKDEGMLFYIVLKDFNILDSCFVLSVLLAFQKRLWMAPSEKSYFRVPKNINLTGSFYLPKNIETGRGHIITSYRREQPSSSIVEVGFNVVPDFQQFQVKACHVSKFMNELSNFFSQVEFGKCEANVINYFKREYNRTYSQISLALYELPLIGDGLFDIKSYISKTRPIIETSKAQMIKHISEMKAYNEISGLQGDQFPRQQRPLSNSPSSNSISSSQTIEAGATSYQTQPQRHAVNKPSNVLNSSNRHSGPKTFEDGRYSEGNKPGFMTQDEIKQHCIGTIKASMDAVKKKSSYQILKTYVRCPRQNYIDIVYQNLNDLRSKTNCNIVVLNLNNLHESQMWLESLNTTNYTIFAQAPHPSTIRVISIGGVGEYIVKALELILNILEH
B2: Yhc1 (natural protein, S. cerevisiae, UniProt Q05900 1-231, looked up)
chain: MTRYYCEYCHSYLTHDTLSVRKSHLVGKNHLRITADYYRNKARDIINKHNHKRRHIGKRGRKERENSSQNETLKVTCLSNKEKRHIMHVKKMNQKELAQTSIDTLKLLYDGSPGYSKVFVDANRFDIGDLVKASKLPQRANEKSAHHSFKQTSRSRDETCESNPFPRLNNPKKLEPPKILSQWSNTIPKTSIFYSVDILQTTIKESKKRMHSDGIRKPSSANGYKRRRYGN
B3: Prp42 (natural protein)
chain: MDKYTALIHDENFSTLTLNVSRYPKSLAYWEKLLNYIVKASAPICKSTEPQLLKLIRCTYSSMLNEFPYLENYYIDFALLEYKLGNVSMSHKIFQRGLQAFNQRSLLLWTSYLKFCNNVISHQKQLFKKYETAEEYVGLHFFSGEFWDLYLEQISSRCTSSKKYWNVLRKILEIPLHSFSKFYALWLQRIDDIMDLKQLSQLTSKDELLKKLKIDINYSGRKGPYLQDAKKKLKKITKEMYMVVQYQVLEIYSIFESKIYINYYTSPETLVSSDEIETWIKYLDYTITLQTDSLTHLNFQRALLPLAHYDLVWIKYSKWLINSKNDLLGAKNVLLMGLKFSLKKTEIIKLLYSVICKLNEYVLLRNLLEKIESSYSDNVENVDDFEIFWDYLQFKTFCQNSLYSSRYSDSQSNGLLNKELFDKVWKRLSCKEKKSGQEILLNNLVQFYSKDTVEFVEKNIFQKIIEFGWEYYLQNGMFWNCYCRLIYFDTSRSYLDKRQYIVRKIWPQIDKKFAQSVLPSLTEFCESYFPEEMDTLEEMFTEEP
B4: Nam8 (natural protein, S. cerevisiae, UniProt Q00539 1-523, looked up)
chain: MSYKQTTYYPSRGNLVRNDSSPYTNTISSETNNSSTSVLSLQGASNVSLGTTGNQLYMGDLDPTWDKNTVRQIWASLGEANINVRMMWNNTLNNGSRSSMGPKNNQGYCFVDFPSSTHAANALLKNGMLIPNFPNKKLKLNWATSSYSNSNNSLNNVKSGNNCSIFVGDLAPNVTESQLFELFINRYASTSHAKIVHDQVTGMSKGYGFVKFTNSDEQQLALSEMQGVFLNGRAIKVGPTSGQQQHVSGNNDYNRSSSSLNNENVDSRFLSKGQSFLSNGNNNMGFKRNHMSQFIYPVQQQPSLNHFTDPNNTTVFIGGLSSLVTEDELRAYFQPFGTIVYVKIPVGKCCGFVQYVDRLSAEAAIAGMQGFPIANSRVRLSWGRSAKQTALLQQAMLSNSLQVQQQQPGLQQPNYGYIPSSTCEAPVLPDNNVSSTMLPGCQILNYSNPYANANGLGSNNFSFYSNNNATNTQATSLLADTSSMDLSGTGGQQVIMQGSEAVVNSTNAMLNRLEQGSNGFMFA
B5: Lea1 (natural protein, S. cerevisiae, UniProt Q08963 1-238, looked up)
chain: MKFTPSIVIDAPQYYVDHFNGKYNVDKCVILRDLQLETDSESMPSSLKHLTKPTHILDLTNNDLIMIPDLSRRDDIHTLLLGRNNIVEVDGRLLPMNVQNLTLSNNSIRRFEDLQRLRRAPRTLKNLTLIGNQVCHLANYREHVLRLVPHLETLDFQNVTAEERKSAMSFPRQADGDTLGPVNTAIRDNGSRDKTMEIMNLVVSKMTVERRNELKKQLAEATSLEEIARLEKLLSGGV

Common to all, as to test: cryo-EM structure
One assay concerns the target T1, Snu71 (S. cerevisiae, UniProt P53207 1-620).
T1 sequence (looked up): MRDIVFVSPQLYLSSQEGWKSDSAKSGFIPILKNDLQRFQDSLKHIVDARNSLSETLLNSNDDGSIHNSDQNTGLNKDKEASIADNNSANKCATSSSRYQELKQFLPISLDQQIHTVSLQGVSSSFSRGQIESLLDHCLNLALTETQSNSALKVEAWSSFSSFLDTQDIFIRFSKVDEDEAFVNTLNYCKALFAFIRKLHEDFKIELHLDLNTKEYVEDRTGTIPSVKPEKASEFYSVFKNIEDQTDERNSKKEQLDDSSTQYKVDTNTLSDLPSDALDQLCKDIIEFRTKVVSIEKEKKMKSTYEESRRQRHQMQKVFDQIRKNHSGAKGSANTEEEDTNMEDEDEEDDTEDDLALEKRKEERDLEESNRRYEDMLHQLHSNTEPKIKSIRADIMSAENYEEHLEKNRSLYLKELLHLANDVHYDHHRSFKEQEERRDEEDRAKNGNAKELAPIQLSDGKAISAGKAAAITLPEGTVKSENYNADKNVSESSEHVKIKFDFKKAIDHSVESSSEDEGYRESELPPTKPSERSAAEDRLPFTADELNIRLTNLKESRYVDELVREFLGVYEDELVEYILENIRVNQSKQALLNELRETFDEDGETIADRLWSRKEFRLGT

The assay “Nam8” concerns the target B4.
Another assay has as its target T2, Prp39 (S. cerevisiae, UniProt P39682 1-629).
T2 sequence: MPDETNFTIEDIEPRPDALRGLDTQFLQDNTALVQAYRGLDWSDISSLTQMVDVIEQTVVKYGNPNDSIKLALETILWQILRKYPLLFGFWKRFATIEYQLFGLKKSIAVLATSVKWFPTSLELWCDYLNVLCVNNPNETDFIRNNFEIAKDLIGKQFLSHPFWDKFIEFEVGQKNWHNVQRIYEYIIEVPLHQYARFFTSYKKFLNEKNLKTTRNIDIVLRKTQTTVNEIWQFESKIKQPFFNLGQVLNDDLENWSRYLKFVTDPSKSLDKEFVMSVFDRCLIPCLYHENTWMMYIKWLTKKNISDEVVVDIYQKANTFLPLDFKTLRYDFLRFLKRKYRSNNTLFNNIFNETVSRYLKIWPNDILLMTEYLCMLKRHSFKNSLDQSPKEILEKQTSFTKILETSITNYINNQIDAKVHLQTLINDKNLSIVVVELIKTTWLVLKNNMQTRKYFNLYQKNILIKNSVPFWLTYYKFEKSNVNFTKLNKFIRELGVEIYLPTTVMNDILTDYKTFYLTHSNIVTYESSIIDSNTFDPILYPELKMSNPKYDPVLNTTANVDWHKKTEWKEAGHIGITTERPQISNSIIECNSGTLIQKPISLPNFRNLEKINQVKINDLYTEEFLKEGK

The assay “Prp42” has as its target B3.

As to B1, the binding result with Snu71 is “binds”.
Regarding B2, the binding result in the assay with Nam8, with Prp39 and with Prp42 was “binds” each time.
As for B3, the binding result with Prp39 and in the assay with Snu71 was “binds” each time.
Regarding B4, the binding result with Prp39 and with Prp42 was “binds” throughout.
Regarding B5, in the assay with Prp39, the binding result was “binds”.
